# Molecular target: the molecule itself
# Assay: crystal structure
protein,measurement,value
SNX1 (301–522) (domain or fragment) KMNESDIWFEEKLQEVECEEQRLRKLHAVVETLVNHRKELALNTAQFAKSLAMLGSSEDNTALSRALSQLAEVEEKIEQLHQEQANNDFFLLAELLSDYIRLLAIVRAAFDQRMKTWQRWQDAQATLQKKREAEARLLWANKPDKLQQAKDEILEWESRVTQYERDFERISTVVRKEVIRFEKEKSKDFKNHVIKYLETLLYSQQQLAKYWEAFLPEAKAIS,binding result,binds
